Entries after “also recorded” stand apart in the source; their conditions may differ.
Columns and labels:
HeLa cells = assay: Scratch-wound 2D cell migration assay; assay type: cell-based; settings: lysates 6 h post-wounding
[1] = target: T1, Gαi1-YFP / CFP-Gβ1 / Gγ2 heterotrimer (Gi) (Homo sapiens, UniProt P63096); assay: FRET assay of Gi heterotrimer dissociation after EGF in GIV-depleted HeLa cells; assay type: cell-based
T1 construct: expressed in transfected cells; host or cells: HeLa cells stably depleted of GIV by shRNA
Method: HeLa cells stably depleted of GIV by shRNA were grown to 60-70% confluence in sterile 35 mm MatTek glass bottom dishes. One microgram each of various donor and acceptor plasmid constructs were transfected with Trans-IT-LT1 transfection reagent (Minis Bio LLC) using manufacturer's protocol. Cells were starved overnight in serum-free DMEM (Gibco), transduced the following morning with TAT proteins for 30 min, washed with PBS and subsequently the media was switched to DMEM without phenol red before live cell imaging. EGF stimulation was carried out ˜4 h after TAT transduction. Fluorescence microscopy studies were conducted on single cells in mesoscopic regime to avoid inhomogeneities from samples as previously rationalized by Midde et al. (55-57). Olympus FV1000 inverted confocal laser scanning microscope was used for live cell FRET imaging (UCSD-Neuroscience core facility). The microscope is stabilized on a vibration proof platform, caged in temperature controlled (37° C.) and CO2 (5%) supplemented chamber. A 60×1.49 N. An oil immersed objective designed to minimize chromatic aberration and enhance resolution for 405-605 nm imaging was used. Olympus Fluoview inbuilt software was used for data acquisition through the method of sensitized emission. A 405 nm laser diode was used to excite ECFP and 515 nm Argon-ion laser was used to excite EYFP. The bandwidth of spectral emission was adjusted through grating to minimize bleed through. Enhanced CFP emission was collected from 425 to 500 nm and EYFP emission was collected through 535-600 nm and passed through a […] confocal pinhole before being sent to photomultiplier tube to reject out of plane focused light. Every field of view is imaged sequentially through ECFPex/ECFPem, ECFPex/EYFPem and EYFPex/EYFPem (3 excitation and emission combinations) and saved as donor, transfer and acceptor image files through an inbuilt wizard.
To obtain the FRET images and efficiency of energy transfer values a RiFRET plugin in Image J software was used (58). FRET images were obtained by pixel-by-pixel ratiometric intensity method and efficiency of transfer was calculated by the ratio of intensity in transfer channel to the quenched (corrected) intensity in the donor channel. Cells transfected with CFP and YFP alone were imaged under all three previously mentioned excitation and emission combinations and are used to correct for cross-talk. Furthermore, untransfected cells and a field of view without cells were imaged to correct for background, autofluorescence and light scattering. Cells chosen for imaging were ensured for identical expression of donor and acceptor probes by the photons collected in individual channels.

L6 myotubes = assay: Fluorometric 2-deoxyglucose uptake assay after insulin stimulation; assay type: cell-based, rat; settings: for insulin-stimulated glucose uptake in the basal state: L6 myotubes without PA; for reversal of PA-induced IR (insulin stimulated glucose uptake): PA-treated L6 myotubes
Method: Transfection was carried out with GeneJuice (Novagen) for DNA plasmids or Oligofectamine (Invitrogen) for siRNA oligos according to manufacturer's protocols. Silencer negative Control scrambled (Scr) siRNA used as control was purchased from Ambion and the previously validated (Enomoto et al., 2005) GIV siRNA sequence used was custom-ordered from Dharmacon. For TAT-construct transduction, cells were incubated with 300-800 nM of the TAT-proteins for 30 min at 37° C. prior to three washes with PBS and addition of fresh growth media. For assays involving insulin (Novagen) stimulation of TAT-treated cells, such stimulation was carried out 90 min after transduction.
Unless otherwise indicated, serum starvation of cells for use in experiments involving insulin stimulation was carried out by growing cells overnight in the presence of no serum (i.e., 0% FBS) in the case of Cos7 and L6 cells, or in the presence of 0.2% FBS in the case of HeLa cells. To induce IR, cells were pre-treated with Sodium Palmitate (PA; Sigma-Aldrich) (0.5 mM, stock solution at 5 mM/5% FFA-free BSA in ethanol) or vehicle control (5% FFA-free BSA in ethanol) for 16 h. To reverse IR with TZDs, cells were treated with 50 μM Pioglitazone (Pio) (Sigma-Aldrich) or DMSO (vehicle control) for 18 h prior to stimulation with 100 nM insulin. Treatment with PKCθ pseudo-substrate inhibitor (Santa Cruz Biotechnologies) was performed at 10 μM for 16 h.
Glucose uptake assays were performed without the use of radioisotopes as described previously (Yamamoto et al., 2006). HeLa and L6 cells grown in 6-well plates were stimulated with insulin in KRH Buffer [50 mM HEPES, 137 mM NaCl, 4.7 mM KCl, 1.85 mM CaCl2, 1.3 mM MgSO4, and 0.1% (w/v) BSA-FFA free, pH 7.4]. Cells were incubated with 1 mM 2-deoxyglucose (2-DG) for 20 min, washed, and subsequently lysed with 0.1 N NaOH. The lysates were transferred into eppendorf tubes and samples were incubated in a water bath maintained at 80° C. for 45 min to degrade endogenous NAD(P)H and NAD(P)^+. An equal volume each of 0.1 N HCl and Triethanolamine (200 mM TEA, pH 8.1) buffer were added to each tube. Samples were subsequently mixed with assay solution [50 mM TEA, 0.02% BSA-FFA free, 10 μM NAD(P)^+, 0.2 U/ml Diaphorase, 6 nM Resazurin sodium, 15 U/ml G6PDH (Santa Cruz Biotechnologies)] and incubated at 37° C. for 90 min. Fluorescence intensity (λex=550 nM, λem=590 nM) was determined using a Tecan Inifinite M1000 PRO and normalized to total protein, as determined using BCA assay (Thermo Scientific).

T1 sequence (P63096 2-354 limits assumed, one chain of several): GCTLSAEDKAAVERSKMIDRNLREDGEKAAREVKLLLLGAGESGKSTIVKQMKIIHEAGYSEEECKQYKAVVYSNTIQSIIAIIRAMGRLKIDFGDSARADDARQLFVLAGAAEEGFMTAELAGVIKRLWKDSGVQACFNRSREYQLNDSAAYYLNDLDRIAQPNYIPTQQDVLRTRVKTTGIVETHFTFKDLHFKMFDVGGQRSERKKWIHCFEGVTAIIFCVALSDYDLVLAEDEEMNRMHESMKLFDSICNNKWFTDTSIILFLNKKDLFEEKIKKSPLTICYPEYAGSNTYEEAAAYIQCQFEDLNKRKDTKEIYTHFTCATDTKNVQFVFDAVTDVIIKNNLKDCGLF

| Molecule | Akt activation during 2D cell migration (HeLa cells) | EGFR autophosphorylation during 2D cell migration (HeLa cells) | Akt activation during 2D cell migration (HeLa cells; listed as WT) | EGFR autophosphorylation during 2D cell migration (HeLa cells; listed as WT) | loss of FRET / dissociation of trimeric Gi in response to EGF ([1]; 50 nM EGF, 5 min) | FRET after EGF stimulation ([1]; 50 nM EGF, 5 min, p=0.0011) | FRET before EGF stimulation ([1]; plasma membrane ROIs, t0) | insulin-stimulated glucose uptake in the basal state (L6 myotubes) | reversal of PA-induced IR (insulin stimulated glucose uptake) (L6 myotubes) | reversal of PA-induced IR (insulin stimulated glucose uptake) (L6 myotubes; listed as GIV-CT-WT) | effectiveness in reversing PA-induced IR compared with Pio (L6 myotubes; ~800 nM of WT peptide) | loss of FRET / dissociation of trimeric Gi in response to EGF ([1]; 50 nM EGF, 5 min, listed as FA) |
| --- | --- | --- | --- | --- | --- | --- | --- | --- | --- | --- | --- | --- |
| TAT-GIV-CT-WT: Recombinant cell-permeable fusion of TAT-PTD, His and HA tags, linker and human GIV C-terminus (aa 1660-1870), wild type; SEQ ID NO: 2 (protein) MRGSHHHHHHGMASMTGGQQMGRDLYDDDDKDRWGSKLGYGRKKRRQRRRGGSTMSGYPYDVPDYAGSMGGSGHSGETLESRHHKIKTGSPGSEVVTLQQFLEESNKLTSVQIKSSSQENLLDEVMKSLSVSSDFLGKDKPVSCGLARSVSGKTPGDFYDRRTTKPEFLRPGPRKTEDTYFISSAGKPTPGTQGKIKLVKESSLSRQSKDSNPYATLPRASSVISTAEGTTRRTSIHDFLTKDSRLPISVDSPPAAADSNTTAASNVDKVQESRNSKSRSREQQSS | enhances | enhances | enhanced | enhanced | significant loss of FRET; also recorded: sufficient to trigger dissociation of trimeric Gi | 0.15±0.07 | 0.22±0.04 | unaffected | effectively reverse | effectively reversed | as effective as 50 μM Pio | – |
| TAT-GIV-CT-FA: GEF-deficient F1685A mutant of the TAT-GIV-CT peptide, dominant-negative; SEQ ID NO: 3 (protein) MRGSHHHHHHGMASMTGGQQMGRDLYDDDDKDRWGSKLGYGRKKRRQRRRGGSTMSGYPYDVPDYAGSMGGSGHSGETLESRHHKIKTGSPGSEVVTLQQALEESNKLTSVQIKSSSQENLLDEVMKSLSVSSDFLGKDKPVSCGLARSVSGKTPGDFYDRRTTKPEFLRPGPRKTEDTYFISSAGKPTPGTQGKIKLVKESSLSRQSKDSNPYATLPRASSVISTAEGTTRRTSIHDFLTKDSRLPISVDSPPAAADSNTTAASNVDKVQESRNSKSRSREQQSS | not | not | – | – | No similar loss of FRET | – | – | significantly inhibited | not | – | – | not |

Reference: US10653749B2, “Targeting GIV-GEF-GI signaling for treating diverse diseases” (The Regents of the University of California, priority 2015, dated 2020)
